In the supplement of paper PMC10567573:

B1: POMT2 (parent)
chain: YHEAPMTRKHYQVTGYGINGTGDS

Variants of: B1
Assay: protein stability index of a GFP-peptide fusion (GPS, HEK-293T) (PSI 1-6); higher = more stable
Conditions: c terminus: a fixed tail appended
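Note: lentivirally expressed fusions sorted by FACS into six bins by GFP to DsRed ratio, PSI derived from sequencing read proportions per bin multiplied by bin number.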

Protein stability index of substitutions, site by site:
D23: I 2.18; H 2.03; K 1.99; C 2.22; F 1.63; A 2.02; G 2.88; E 2.11
H10: Q 2.87; N 2.92; D 3.54; T 2.08; K 2.58; P 2.37; V 1.91; S 2.36; E 3.02; L 1.51; F 2.5; C 2.66; Y 1.33; G 3.05; W 2.49; I 2.79; A 1.86; M 1.94; R 1.94
G17: R 2.37; H 2.06; A 1.9; V 2.08; Y 2.26; S 1.62; L 2.5; D 2.51; M 1.84; T 2.24; K 2.13; W 2.6; I 1.84; C 2.41; Q 1.75; F 1.79; P 2.87; E 2.73; N 2.03
P5: Y 1.73; W 1.63; V 2.14
I18: Q 2.9; R 2.55; E 2.95; V 2.21; H 2.47; K 2.78; W 1.67; D 2.9; L 2.64; F 2.47; Y 2.07; G 2.2; P 2.36; C 2.37; M 2.3; S 2.22; N 2.42; A 2.73; T 2.42
Q12: H 2.07; Y 2.46; I 1.97; V 2.36; S 2.22; K 2.24; M 2.34; A 1.96; N 2.85; G 2.08; L 2.29; T 2.16; C 2.08; F 2.28; P 2.37; W 1.91; E 2.41; R 1.88; D 3.05
N19: Y 2.57; C 2.02; G 2.4; W 2.24; K 2.44; T 2.21; M 2.62; Q 1.84; R 1.73; S 2.3; F 2.3; A 1.8; V 2.03; H 2.25; L 2.06; I 1.9; D 1.88; E 1.9; P 2.4
R8: L 3.16; K 2.44; S 2.6; W 1.62; C 1.95; E 3; M 2.68; V 2.55; Y 2.09; I 1.94; N 2.82; T 2.44; G 2.74; F 2.09; Q 2.86; D 3.19; A 2.61; P 2.31; H 3.02
Y16: N 2.43; M 2.3; W 1.75; H 2.79; R 3.36; Q 2.26; P 2.92; D 3.66; C 2.51; F 1.75; G 2.9; K 3.2; S 2.67; I 2.47; A 2.48; L 1.97; V 2.47; T 2.53; E 3.3
G22: A 2.26; N 2.18; E 2.35; Q 2.28; Y 2.15; F 2.3; P 3.15; W 1.7; H 2.44; D 2.17; L 2.28; T 1.95; C 1.91; M 2.04; R 1.92; K 2.29; S 2.36; I 1.68; V 2.25
G15: Q 1.88; R 2.02; Y 2.44; L 1.51; E 3.36; W 2.28; H 2.63; S 2.14; D 2.31; C 2.01; I 1.59; P 2.86; N 2.04; F 1.19; V 1.44; K 2.71; T 2.78; A 2.25; M 2.03
Y11: F 2.01; S 3.03; P 3.14; H 2.93; E 3.98; G 3.23; K 3.14; T 3.17; D 3.77; Q 3.57; R 2.56; M 2.98; C 3.06; V 3.22; I 2.77; N 3.15; A 3.38; W 1.7; L 2.75
T14: M 2.05; N 2.39; P 2.54; K 1.97; G 3.05; Y 1.54; L 1.99; A 1.85; H 2.53; R 2.13; I 2.12; D 3.36; W 1.41; F 2.57; S 2.03; V 1.84; C 3.13; Q 2.87; E 2.96
K9: F 2.13; W 2.07; H 1.84; T 2.7; I 2.12; R 1.87; N 2.47; G 2.51; Y 1.76; E 3.29; Q 2.9; V 2.35; A 2.31; D 3.42; M 2.3; L 1.97; C 2.42; S 2.29; P 2.76
M6: Y 1.98; A 2.48; R 2.7; P 2.55; V 2.67; W 1.42; C 2; L 2.41; S 2.59; D 2.36; E 2.56; G 2.38; Q 2.68; I 2.83; T 2.43; F 1.82; K 2.55; H 1.69; N 2.15
G20: S 2.36; L 2.21; K 2.08; M 1.98; D 2.18; C 1.86; N 2.47; F 2.35; T 2.43; R 2.16; I 2.03; E 2.4; V 1.98; A 2.45; P 2.24; Q 2.43; H 2.26; W 2.12; Y 2.39
T7: L 1.79; Q 2.57; D 2.66; R 1.87; G 2.08; E 2.39; Y 1.47; C 2.2; W 3.27; A 2.33; I 2.45; M 2.17; H 2.03; K 1.86; V 2.07; P 2.42; S 2.3; F 1.92; N 1.82
T21: W 2.15; D 2.46; Q 2.12; L 2.1; Y 1.76; P 2.25; N 2.58; R 2.6; S 2.19; I 1.37; V 1.37; A 2.56; G 1.83; M 2.01; E 2.04; H 2.23; C 2.4; F 2.11; K 2.3
V13: Y 2.97; A 2.76; H 2.84; F 2.08; R 3.24; T 2.6; N 2.65; M 2.59; K 2.68; G 2.52; L 2.69; Q 3.11; P 2.34; E 3.61; W 2.23; D 3.46; S 3.32; I 2.21; C 2.14
